Results taken from article PMC3351461.

Legend:
[1] = target: Wnt3a (human (endogenous in H322 and H460)) (UniProt P56704)
[2] = target: Wnt3a (human (endogenous in H322 and H460)) (UniProt P56704); remark: listed apart in the source

UniProt P56704, sequence (P56704 19-352): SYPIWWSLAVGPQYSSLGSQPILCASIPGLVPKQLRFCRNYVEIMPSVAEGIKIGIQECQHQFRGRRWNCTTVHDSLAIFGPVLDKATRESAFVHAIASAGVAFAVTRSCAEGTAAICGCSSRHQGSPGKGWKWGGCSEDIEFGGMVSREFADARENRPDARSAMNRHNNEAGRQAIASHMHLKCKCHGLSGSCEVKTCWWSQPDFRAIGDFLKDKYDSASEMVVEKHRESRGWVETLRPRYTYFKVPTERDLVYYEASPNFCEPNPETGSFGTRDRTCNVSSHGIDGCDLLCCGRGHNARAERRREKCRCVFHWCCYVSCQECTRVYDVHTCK

soluble LRP6 receptor (sLRP6E1E2) (domain or fragment)
TOPflash luciferase activity in H322 cells with recombinant Wnt3a (100 ng/ml), lower in dE1-k35/sLRP6E1E2-transduced than in dE1-k35/LacZ-transduced cells [1]: 52%
TOPflash luciferase activity in H322 cells without added Wnt3a, reduction by dE1-k35/sLRP6E1E2 compared with dE1-k35/LacZ [1]: 12%
TOPflash luciferase activity in H460 cells with recombinant Wnt3a (100 ng/ml), lower in dE1-k35/sLRP6E1E2-transduced than in dE1-k35/LacZ-transduced cells [1]: 48%
TOPflash luciferase activity in H460 cells without added Wnt3a, reduction by dE1-k35/sLRP6E1E2 compared with dE1-k35/LacZ [1]: 48%
nuclear beta-catenin (immunofluorescence, quantified) in H322 cells with Wnt3a, decrease in dE1-k35/sLRP6E1E2-transduced cells compared with dE1-k35/LacZ [2]: 98.1%
